This data set has as its target M.SssI Q142A/N370A (UniProt P15840 SEQ:1-386, Q142A,N370A). Description: Ado-6-amine 80 uM, no Mg, 37 C; modified deoxycytidine detected by HPLC/ESI-MS. As to conditions: tags: His6.

M.SssI Q142A/N370A, sequence (P15840 whole entry Q142A/N370A): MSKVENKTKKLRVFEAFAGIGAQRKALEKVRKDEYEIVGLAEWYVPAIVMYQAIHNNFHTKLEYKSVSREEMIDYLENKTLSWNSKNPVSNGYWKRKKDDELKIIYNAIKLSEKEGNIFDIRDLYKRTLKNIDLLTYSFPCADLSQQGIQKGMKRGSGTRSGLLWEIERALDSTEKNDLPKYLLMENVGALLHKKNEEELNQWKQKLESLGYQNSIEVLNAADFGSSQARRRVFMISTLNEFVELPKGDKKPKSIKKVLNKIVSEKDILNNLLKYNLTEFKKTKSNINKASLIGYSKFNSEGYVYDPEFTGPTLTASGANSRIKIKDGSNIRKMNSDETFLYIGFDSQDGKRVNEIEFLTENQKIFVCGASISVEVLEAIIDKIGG

B1: 24-mer duplex oligonucleotide (dsDNA)
DNA 1: GCATTACGCGCCAGGTCGTTTCGT
DNA 2: TACGAAACGACCTGGCGCGTAATG
As to B1, the binding result is on record as “binds”.

The values are drawn from patent US20130130922, “ANALYSIS OF METHYLATION SITES” (Centre for Addiction and Mental Health, published 2013).
